Positions count from the first letter of the chain named. Like-named read-outs stand apart in the source and are kept apart here.
T1: human NPR1 full-length protein overexpressed on CHO-K1 cells (human, UniProt P16066 33-1061)
T1 sequence: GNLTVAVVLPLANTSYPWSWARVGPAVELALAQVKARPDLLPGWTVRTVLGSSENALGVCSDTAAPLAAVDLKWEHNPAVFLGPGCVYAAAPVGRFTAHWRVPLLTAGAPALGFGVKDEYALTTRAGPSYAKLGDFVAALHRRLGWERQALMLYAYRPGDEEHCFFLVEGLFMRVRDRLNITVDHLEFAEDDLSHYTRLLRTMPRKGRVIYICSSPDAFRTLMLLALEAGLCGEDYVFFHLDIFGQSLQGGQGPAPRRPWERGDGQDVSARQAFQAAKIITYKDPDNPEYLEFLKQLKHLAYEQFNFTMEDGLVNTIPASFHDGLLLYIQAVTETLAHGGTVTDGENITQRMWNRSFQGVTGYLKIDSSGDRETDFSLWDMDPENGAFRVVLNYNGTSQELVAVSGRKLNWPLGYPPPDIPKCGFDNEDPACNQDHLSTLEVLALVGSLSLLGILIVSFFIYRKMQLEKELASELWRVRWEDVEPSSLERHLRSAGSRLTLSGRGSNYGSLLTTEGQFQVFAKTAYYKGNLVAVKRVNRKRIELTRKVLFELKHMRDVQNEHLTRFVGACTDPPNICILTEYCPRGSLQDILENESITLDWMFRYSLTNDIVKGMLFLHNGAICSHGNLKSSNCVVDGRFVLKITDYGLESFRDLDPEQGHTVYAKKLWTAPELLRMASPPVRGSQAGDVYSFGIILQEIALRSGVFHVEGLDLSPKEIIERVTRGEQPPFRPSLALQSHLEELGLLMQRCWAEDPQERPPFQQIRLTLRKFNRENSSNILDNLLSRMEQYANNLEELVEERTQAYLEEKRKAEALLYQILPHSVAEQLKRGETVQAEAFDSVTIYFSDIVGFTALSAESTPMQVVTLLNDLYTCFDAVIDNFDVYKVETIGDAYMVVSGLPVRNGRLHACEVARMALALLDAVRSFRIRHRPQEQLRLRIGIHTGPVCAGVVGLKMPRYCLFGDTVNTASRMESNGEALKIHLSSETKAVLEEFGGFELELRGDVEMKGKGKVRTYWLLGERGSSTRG

T2: hNPR2 (human, UniProt P20594 23-458, limits assumed)
T2 construct: Commercial protein; construct not described; also called hNPR2 antigen
T2 sequence (looked up): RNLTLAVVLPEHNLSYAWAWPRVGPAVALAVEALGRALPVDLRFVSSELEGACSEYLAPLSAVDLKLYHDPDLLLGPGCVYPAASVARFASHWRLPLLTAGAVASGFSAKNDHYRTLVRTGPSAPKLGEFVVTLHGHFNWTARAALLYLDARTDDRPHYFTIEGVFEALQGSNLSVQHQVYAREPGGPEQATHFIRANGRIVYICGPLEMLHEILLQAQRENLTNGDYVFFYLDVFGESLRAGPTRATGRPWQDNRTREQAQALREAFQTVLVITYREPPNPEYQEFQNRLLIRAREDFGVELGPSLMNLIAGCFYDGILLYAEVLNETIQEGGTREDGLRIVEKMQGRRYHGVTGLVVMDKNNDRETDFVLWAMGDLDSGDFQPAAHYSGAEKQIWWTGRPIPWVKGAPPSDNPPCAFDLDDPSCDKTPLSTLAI

B1: Hu127H4L1 (antibody, human IgG1, kappa, L234A L235A)
heavy: not shown
light: DIVMTQSPDSLAVSLGERATINCRASESVDSYGNSFMHWYQQKPGQPPKVLIYLASTLESGVPDRFSGSGSRTDFTLTISSLQAEDVAVYYCQQNNEDPLTFGQGTKLEIKRTVAAPSVFIFPPSDEQLKSGTASVVCLLNNFYPREAKVQWKVDNALQSGNSQESVTEQDSKDSTYSLSSTLTLSKADYEKHKVYACEVTHQGLSSPVTKSFNRGEC
B2: Hu127H7L3 (antibody, human IgG1, kappa, L234A L235A)
heavy: not shown
light: B1 light with D1N, M4L
B3: Hu127H8L3 (antibody, human IgG1, kappa, L234A L235A)
heavy: not shown
light: B1 light with D1N, M4L
B4: Hu127H8L1 (antibody, human IgG1, kappa, L234A L235A)
heavy: not shown
light: B1 light
B5: Hu127H4L3 (antibody, human IgG1, kappa, L234A L235A)
heavy: not shown
light: B1 light with D1N, M4L
B6: Hu127H7L1 (antibody, human IgG1, kappa, L234A L235A)
heavy: not shown
light: B1 light
B7: Hu102H5L6 (antibody, human IgG1, kappa, L234A L235A, V domains shown)
VH: DVKLVESGEGLVKPGGSLRLSCAASGFTFSTYGMSWVRQAPGKRLEWVAYISRGGDYIYYADTVKGRFTISRDNAKNSLYLQMNSLRAEDTAVYYCTRDQTTVVVHWYFDVWGQGTTVTVSS
VL: DIQLTQSPSSLSASVGDRVTITCSASSSINYMHWYQQKPGKSPKRWIYDTSKLASGVPSRFSGSGSGTDYTLTISSLQPEDFATYYCHQRNSYTFGGGTKVEIKR
B8: Hu135H2L1 (antibody, human IgG1, kappa, L234A L235A, V domains shown)
VH: B7 VH with T28S, F29I, S52N, R53S, D56N, Q100R, V103I
VL: DIQLTQSPSSLSASVGDRVTITCSASSSLNFMHWYQQKPGKSPKRWIYDTSKLASGVPSRFSGSGSGTDYTLTISSLQPEDFATYYCHQRSSTFGGGTKVEIKR
B9: Hu102H4L6 (antibody, human IgG1, kappa, L234A L235A, V domains shown)
VH: B7 VH with T31S, G33A, T63S, T91S
VL: B7 VL
notes: Humanized, human IgG1 LALA/kappa; also called Hul02H4L6
B10: Hu135H1L1 (antibody, human IgG1, kappa, L234A L235A, V domains shown)
VH: B7 VH with S52N, R53S, D56N, Q100R, V103I
VL: B8 VL
B11: Hu127H4L5 (antibody, human IgG1, kappa, L234A L235A, V domains shown)
VH: EAYLVQSGAEVKKPGASVKVSCKASGYSFTGYFMNWVRQAPGKGLEWMGRINPYSGDTFYNQKFKGRVTLTVDKSTSTVYMELSSLRSEDTAVYYCARRGYGNRGYWYFDVWGQGTTVTVSS
VL: NIQLTQSPSSLSASVGDRVTITCRASESVDSYGNSFMHWYQQKPGKAPKVLIYLASTLESGVPSRFSGSGSRTDFTLTISSLQPEDFATYYCQQNNEDPLTFGQGTKLEIKR
B12: Hu127H4L6 (antibody, human IgG1, kappa, L234A L235A, V domains shown)
VH: B11 VH
VL: B11 VL with D17Q, A47P
B13: Hu127H7L5 (antibody, human IgG1, kappa, L234A L235A)
heavy: not shown
light: NIQLTQSPSSLSASVGDRVTITCRASESVDSYGNSFMHWYQQKPGKAPKVLIYLASTLESGVPSRFSGSGSRTDFTLTISSLQPEDFATYYCQQNNEDPLTFGQGTKLEIKRTVAAPSVFIFPPSDEQLKSGTASVVCLLNNFYPREAKVQWKVDNALQSGNSQESVTEQDSKDSTYSLSSTLTLSKADYEKHKVYACEVTHQGLSSPVTKSFNRGEC
B14: Hu127H7L6 (antibody, human IgG1, kappa, L234A L235A)
heavy: not shown
light: B13 light with D17Q, A47P
B15: Hu127H8L6 (antibody, human IgG1, kappa, L234A L235A)
heavy: not shown
light: B13 light with D17Q, A47P
B16: Hu127H8L5 (antibody, human IgG1, kappa, L234A L235A)
heavy: not shown
light: B13 light
B17: CHI-102 (antibody, human IgG1, kappa, V domains shown)
VH: DVKLVESGEGLVKPGGSLKLSCAASGFTFSTYAMSWVRQTPEKRLEWVAYISRGGDYIYYADTVKGRFTISRDNARNTLYLQMSSLKSEDTAMYYCTRDQTTVVVHWYFDVWGTGTTVTVSS
VL: QIVLTQSPAIMSASPGEKVTMTCSASSSINYMHWYQQKPGTSPKRWIYDTSKLASGVPARFSGSGSGTSYSLTISSMEAGDAATYYCHQRNSYTFGGGTKLEIKR
B18: Hu102H3L6 (antibody, human IgG1, kappa, L234A L235A, V domains shown)
VH: B7 VH with G33A
VL: B7 VL

Key:
[1] = target: T1, human NPR1 full-length protein …; assay: cell-based or functional assay
[2] = target: T1, human NPR1 full-length protein …; assay: cell-based or functional assay; remark: listed apart in the source
[3] = target: T1, human NPR1 full-length protein …; assay: cell-based or functional assay; remark: listed apart in the source
[4] = target: T1, human NPR1 full-length protein …; assay: cell-based or functional assay; remark: listed apart in the source
hNPR2 = target: T2, hNPR2; assay: ELISA, plate coated with 4 µg/mL antigen
[5] = target: T3, fusion protein of the human NPR1 protein extracellular domain and human-IgG1-Fc (human); assay: ELISA, plate coated with 4 µg/mL hNPR1 antigen
T3 construct: also called hNPR1-hFc; hNPR1
T3 sequence (chain, as listed by the source limits assumed): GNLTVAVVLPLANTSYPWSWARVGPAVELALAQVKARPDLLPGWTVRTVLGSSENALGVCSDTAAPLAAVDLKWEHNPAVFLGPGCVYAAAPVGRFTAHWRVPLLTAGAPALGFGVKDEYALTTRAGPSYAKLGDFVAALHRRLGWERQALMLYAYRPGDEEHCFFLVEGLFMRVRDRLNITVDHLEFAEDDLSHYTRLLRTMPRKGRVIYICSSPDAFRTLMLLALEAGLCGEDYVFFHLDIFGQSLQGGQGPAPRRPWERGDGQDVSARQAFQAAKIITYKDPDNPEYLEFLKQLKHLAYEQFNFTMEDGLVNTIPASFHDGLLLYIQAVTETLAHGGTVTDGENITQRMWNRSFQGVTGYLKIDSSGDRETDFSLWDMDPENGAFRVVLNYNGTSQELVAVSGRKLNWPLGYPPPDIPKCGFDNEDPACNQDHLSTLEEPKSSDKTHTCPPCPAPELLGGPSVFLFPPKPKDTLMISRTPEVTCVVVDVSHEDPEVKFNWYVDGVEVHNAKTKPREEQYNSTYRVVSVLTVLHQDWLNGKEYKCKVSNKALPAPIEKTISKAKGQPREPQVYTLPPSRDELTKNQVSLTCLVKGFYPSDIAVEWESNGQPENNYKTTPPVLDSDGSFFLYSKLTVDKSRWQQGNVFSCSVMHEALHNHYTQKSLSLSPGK

Binder | cGMP production: EC50 [1] [nM] | cGMP production: Emax [1] | cGMP production: Emin [1] | also measured
B1 | 45.6 | 0.6 | 0.077 | 
B2 | 56.5 | 0.54 | 0.066 | 
B3 | 48.6 | 0.46 | 0.072 | 
B4 | 62.6 | 0.45 | 0.083 | 
B5 | 51.4 | 0.48 | 0.087 | 
B6 | 55.8 | 0.5 | 0.081 | 
B7 |  |  |  | cGMP production: EC50 [2]: 43.6 nM; cGMP production: Emax [2]: 0.59; cGMP production: Emin [2]: 0.21
B8 |  |  |  | cGMP production: EC50 [3]: 186 nM; cGMP production: Emax [3]: 0.45; cGMP production: Emin [3]: 0.143
B9 |  |  |  | cGMP production: EC50 [2]: 45.9 nM; cGMP production: Emax [2]: 0.65; cGMP production: Emin [2]: 0.17; Ratio (without ANP) of NPR1 antigens remaining on the cell surface after endocytosis to the initial number, 10 min, 20 µg/mL [4]: 1.14 ratio; Ratio (without ANP) of NPR1 antigens remaining on the cell surface after endocytosis to the initial number, 1 h, 20 µg/mL [4]: 0.58 ratio; Ratio (without ANP) of NPR1 antigens remaining on the cell surface after endocytosis to the initial number, 7 hrs, 20 µg/mL [4]: 0.53 ratio; Ratio (without ANP) of NPR1 antigens remaining on the cell surface after endocytosis to the initial number, 24 hrs, 20 µg/mL [4]: 0.73 ratio; binding result (hNPR2): no binding (tested: 20 µg/mL (highest concentration)); EC50 [5]: 1.32 nM
B10 |  |  |  | cGMP production: EC50 [3]: 116 nM; cGMP production: Emax [3]: 0.43; cGMP production: Emin [3]: 0.22
B11 | 32.4 | 0.59 | 0.068 | 
B12 | 38.5 | 0.54 | 0.073 | 
B13 | 42.6 | 0.51 | 0.068 | 
B14 | 35.5 | 0.49 | 0.063 | 
B15 | 36.6 | 0.42 | 0.068 | 
B16 | 42 | 0.43 | 0.065 | 
B17 |  |  |  | cGMP production: EC50 [2]: 54.9 nM; cGMP production: Emax [2]: 0.57; cGMP production: Emin [2]: 0.23
B18 |  |  |  | cGMP production: EC50 [2]: 48.5 nM; cGMP production: Emax [2]: 0.61; cGMP production: Emin [2]: 0.16
